Data set [1] deals with the molecule itself. Description: crystal structure; hNup35(173–248)·xhNup35-Nb1t complex; 0.05 M HEPES pH 6.5, 25% PEG400, 0.05 M NaCl, 0.01 M MgCl2.
Data set [2] deals with T1, hNup35 (residues 173–248), RRM domain (human, UniProt Q8NFH5).
T1 construct: Nup35 (also called Nup53 or MP44), human, RRM domain, residues 173-248; also called homodimeric RRM domain of Homo sapiens (h)Nup35; Nup35 RRM; source: E. coli NEB Express, purified, untagged
The data set is described as above. Particulars: both partners purified.

Another data set has as its target T2, human Nup35, endogenous (Homo sapiens (HeLa), UniProt Q8NFH5).
T2 construct: Nup35, human; also called hNup35; source: endogenous, in NPCs of HeLa cells
Description: immunostaining of cells or tissue; sfGFP-Nup107 HeLa cells, PFA-fixed and Triton X-100-permeabilized or unfixed and digitonin-semi-permeabilized; 35 nM Alexa Fluor 647-labelled nanobody, 30 min, RT; confocal microscopy. The following applies: one partner purified.

Data set [3] has as its target T3, Xenopus Nup35, endogenous (Xenopus laevis (egg extract), UniProt Q6INW0).
T3 construct: Nup35 of Xenopus egg extract; also called xNup35; source: endogenous, from Xenopus egg extract, in newly assembled NPCs
Kind of data set: immunostaining of cells or tissue; digitonin-semi-permeabilized sfGFP-Nup107 HeLa cells incubated 2 h at RT with buffer or Xenopus egg extract, energy mix and 35 nM fluorescent tracking nanobodies; Airyscan confocal microscopy. The following applies: one partner purified.

Data set [4] has as its target T4, xNup98-APD (residues 714–864), autoproteolytic domain of Xenopus tropicalis Nup98 (Xenopus tropicalis).
T4 construct: also called APD of Xenopus tropicalis xNup98; source: E. coli NEB Express, purified, untagged
T4 chain: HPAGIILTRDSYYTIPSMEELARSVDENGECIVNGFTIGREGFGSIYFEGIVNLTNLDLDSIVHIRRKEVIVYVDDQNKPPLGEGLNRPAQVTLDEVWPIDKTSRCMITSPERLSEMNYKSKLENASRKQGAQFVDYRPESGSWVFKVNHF
Kind of data set: crystal structure; xNup98-APD(714–864) with xhNup98-Nb2i or xhNup98-Nb3i; 2.5% PEG6000, 25% PEG MME500, 100 mM Tris/HCl pH 9. Particulars: both partners purified.

The target in a further data set is T5, human Nup98, endogenous (human (endogenous in HeLa), UniProt P52948).
T5 construct: Nup98, the cut product of the Nup98–Nup96 fusion protein, human; also called hNup98; source: endogenous, HeLa lysate; also in NPCs of semi-permeabilized HeLa cells
Kind of data set: pull-down; (biotin)-Avi-SUMO^Eu1-nanobodies on streptavidin-agarose, incubated with HeLa lysate or soluble fraction of Xenopus egg extract, 40 min, 4 °C; eluted by SENP^EuB; SDS-PAGE/Coomassie, identities confirmed by mass spectrometry. Particulars: one partner purified.

Data set [5] addresses T6, Xenopus Nup98, endogenous (Xenopus laevis (egg extract, assumed), UniProt A0A8J1MFV7).
T6 construct: Nup98, the cut product of the Nup98–Nup96 fusion protein (Nup196); the egg extract contains the already cleaved entities; also called xNup98; source: endogenous, soluble fraction of Xenopus egg extract; also as recruited from the extract to NPCs
The data set is described as above. Particulars: one partner purified.

The target in data set [6] is T7, His14-NEDD8-tagged APD of xtNup98 (715–866) (Xenopus tropicalis, UniProt A0A1B8XZT4).
T7 construct: held on the Ni2+ chelate matrix by the tag; the tag was cleaved by NEDP1 only for elution; also called Nup98-APD; immobilized APD; source: E. coli NEB Express, purified
Kind of data set: pull-down; His14-NEDD8-APD of xtNup98 immobilised on Ni2+ chelate matrix, incubated with xNup98-Nb1t or xhNup98-Nb2i, then xNup96(1–20)-RFP or xtNup88(2–500) added; eluted by NEDP1; SDS-PAGE/Coomassie. The following applies: both partners purified.

The target of data set [7] is T8, recombinant Xenopus Nup93 target (BLI) (Xenopus, UniProt Q7ZX96).
T8 construct: Nup93, Xenopus; the immunogen was the Nup93 α-solenoid domain; also called xNup93; source: E. coli NEB Express, purified
Description: BLI; nanobodies (biotin-[PEG]3-maleimide on two ectopic cysteines) immobilised on High Precision Streptavidin sensors; target proteins at 30–100 nM; 25 °C; PBS pH 7.4, 0.02% Tween-20, 0.1% BSA; apparent KDs. The following applies: both partners purified. (In general: In BLI a coated tip is dipped into the sample, and binding shifts an interference pattern.)

Data set [8] has as its target T9, recombinant human Nup93 target (BLI) (human, UniProt Q8N1F7).
T9 construct: Nup93, human; the immunogen was the Nup93 α-solenoid domain; also called hNup93; source: E. coli NEB Express, purified
The data set is described as above. Particulars: both partners purified.

The next data set concerns the target T10, human Nup93, endogenous (human (endogenous in HeLa), UniProt Q8N1F7).
T10 construct: Nup93, human; also called hNup93; source: endogenous, HeLa lysate
Description: pull-down; (biotin)-Avi-SUMO^Eu1-nanobodies on streptavidin-agarose, incubated with HeLa lysate or soluble fraction of Xenopus egg extract, 40 min, 4 °C; eluted by SENP^EuB; SDS-PAGE/Coomassie, identities confirmed by mass spectrometry. The following applies: one partner purified.

Data set [9] concerns the target T11, Xenopus Nup93, endogenous (Xenopus (endogenous in egg extract), UniProt Q7ZX96).
T11 construct: Nup93 of Xenopus egg extract; also called xNup93; source: endogenous, soluble fraction of Xenopus egg extract
The data set is described as above. Particulars: one partner purified.

For data set [10], the target named is T12, xNup93(168–820), α-solenoid domain of Xenopus laevis Nup93 (Xenopus laevis, UniProt Q7ZX96).
T12 construct: also called Nup93 α-solenoid domain; source: E. coli NEB Express, purified, untagged
Kind of data set: cryo-EM structure; equimolar trimeric xNup93(168–820)·xhNup93-Nb4i·xNup93-Nb2t complex; 4.4 Å reconstruction. The following applies: both partners purified.

Data set [11] deals with T6, Xenopus Nup98, endogenous. Description: immunostaining of cells or tissue; digitonin-semi-permeabilized sfGFP-Nup107 HeLa cells incubated 2 h at RT with buffer or Xenopus egg extract, energy mix and 35 nM fluorescent tracking nanobodies; Airyscan confocal microscopy. The following applies: one partner purified.

T12 sequence (Q7ZX96 168-820): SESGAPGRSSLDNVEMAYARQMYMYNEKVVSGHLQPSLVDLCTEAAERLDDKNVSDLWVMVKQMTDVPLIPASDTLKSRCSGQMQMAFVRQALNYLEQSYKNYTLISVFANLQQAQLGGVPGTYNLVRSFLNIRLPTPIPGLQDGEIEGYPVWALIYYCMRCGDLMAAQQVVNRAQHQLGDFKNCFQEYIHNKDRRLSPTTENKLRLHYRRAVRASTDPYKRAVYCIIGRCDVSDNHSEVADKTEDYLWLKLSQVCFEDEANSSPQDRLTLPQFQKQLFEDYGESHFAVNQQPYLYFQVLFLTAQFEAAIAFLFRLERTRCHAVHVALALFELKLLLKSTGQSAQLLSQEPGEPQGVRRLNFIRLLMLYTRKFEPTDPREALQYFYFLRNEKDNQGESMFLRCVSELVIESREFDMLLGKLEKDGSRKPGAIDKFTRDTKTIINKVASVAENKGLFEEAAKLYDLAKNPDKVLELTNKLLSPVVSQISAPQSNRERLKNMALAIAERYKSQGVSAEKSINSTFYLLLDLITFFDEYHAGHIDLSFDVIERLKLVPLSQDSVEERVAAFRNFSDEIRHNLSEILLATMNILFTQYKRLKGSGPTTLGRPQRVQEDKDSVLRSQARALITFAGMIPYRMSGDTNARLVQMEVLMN
T5 sequence (P52948 1-880): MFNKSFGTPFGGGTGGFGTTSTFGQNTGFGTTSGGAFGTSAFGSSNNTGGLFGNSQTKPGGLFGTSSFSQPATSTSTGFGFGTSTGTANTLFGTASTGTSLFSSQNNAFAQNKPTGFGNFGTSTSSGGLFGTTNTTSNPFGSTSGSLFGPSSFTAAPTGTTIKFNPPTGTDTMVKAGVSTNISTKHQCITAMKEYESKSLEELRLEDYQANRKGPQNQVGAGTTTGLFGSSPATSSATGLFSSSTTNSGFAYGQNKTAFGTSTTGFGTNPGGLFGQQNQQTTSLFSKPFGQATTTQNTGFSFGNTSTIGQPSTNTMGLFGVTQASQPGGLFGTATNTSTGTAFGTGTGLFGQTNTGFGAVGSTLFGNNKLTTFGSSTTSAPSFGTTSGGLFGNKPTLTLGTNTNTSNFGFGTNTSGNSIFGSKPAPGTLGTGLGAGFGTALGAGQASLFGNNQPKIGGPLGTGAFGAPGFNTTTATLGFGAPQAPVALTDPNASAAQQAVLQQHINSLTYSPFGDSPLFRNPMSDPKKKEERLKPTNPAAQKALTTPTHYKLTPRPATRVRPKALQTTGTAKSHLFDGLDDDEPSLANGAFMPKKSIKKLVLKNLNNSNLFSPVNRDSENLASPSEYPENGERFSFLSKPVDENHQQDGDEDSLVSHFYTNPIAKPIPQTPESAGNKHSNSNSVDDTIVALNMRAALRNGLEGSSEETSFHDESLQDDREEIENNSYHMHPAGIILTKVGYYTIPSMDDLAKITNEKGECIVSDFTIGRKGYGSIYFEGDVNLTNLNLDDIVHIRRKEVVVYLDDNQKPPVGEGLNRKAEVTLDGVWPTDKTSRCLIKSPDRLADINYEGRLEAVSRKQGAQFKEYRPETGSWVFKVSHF
T11 sequence (Q7ZX96 whole entry): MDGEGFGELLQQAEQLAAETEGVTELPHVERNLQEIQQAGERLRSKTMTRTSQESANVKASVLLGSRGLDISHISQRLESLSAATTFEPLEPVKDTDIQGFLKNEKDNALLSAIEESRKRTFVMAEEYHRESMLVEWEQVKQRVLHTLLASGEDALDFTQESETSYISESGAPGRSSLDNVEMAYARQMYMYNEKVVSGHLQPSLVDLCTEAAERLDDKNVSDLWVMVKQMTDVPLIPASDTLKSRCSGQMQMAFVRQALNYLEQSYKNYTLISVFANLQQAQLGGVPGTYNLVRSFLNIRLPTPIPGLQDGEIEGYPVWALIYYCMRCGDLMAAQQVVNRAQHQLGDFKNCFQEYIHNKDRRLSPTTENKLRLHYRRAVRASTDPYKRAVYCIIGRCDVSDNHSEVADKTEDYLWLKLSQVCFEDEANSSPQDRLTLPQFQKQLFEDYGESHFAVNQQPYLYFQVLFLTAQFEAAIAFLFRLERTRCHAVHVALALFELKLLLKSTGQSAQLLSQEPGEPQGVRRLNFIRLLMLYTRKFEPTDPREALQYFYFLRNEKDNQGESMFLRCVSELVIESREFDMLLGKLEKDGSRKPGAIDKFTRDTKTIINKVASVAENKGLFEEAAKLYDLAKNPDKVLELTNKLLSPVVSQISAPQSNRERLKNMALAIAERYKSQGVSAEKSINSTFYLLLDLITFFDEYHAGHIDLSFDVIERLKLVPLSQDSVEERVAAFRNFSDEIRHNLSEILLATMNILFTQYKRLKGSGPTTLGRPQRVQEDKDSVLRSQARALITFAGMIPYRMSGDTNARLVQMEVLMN
T8 sequence (Q7ZX96 whole entry, the tested form may be a part): as the sequence (Q7ZX96 whole entry) above
T10 sequence (Q8N1F7 whole entry): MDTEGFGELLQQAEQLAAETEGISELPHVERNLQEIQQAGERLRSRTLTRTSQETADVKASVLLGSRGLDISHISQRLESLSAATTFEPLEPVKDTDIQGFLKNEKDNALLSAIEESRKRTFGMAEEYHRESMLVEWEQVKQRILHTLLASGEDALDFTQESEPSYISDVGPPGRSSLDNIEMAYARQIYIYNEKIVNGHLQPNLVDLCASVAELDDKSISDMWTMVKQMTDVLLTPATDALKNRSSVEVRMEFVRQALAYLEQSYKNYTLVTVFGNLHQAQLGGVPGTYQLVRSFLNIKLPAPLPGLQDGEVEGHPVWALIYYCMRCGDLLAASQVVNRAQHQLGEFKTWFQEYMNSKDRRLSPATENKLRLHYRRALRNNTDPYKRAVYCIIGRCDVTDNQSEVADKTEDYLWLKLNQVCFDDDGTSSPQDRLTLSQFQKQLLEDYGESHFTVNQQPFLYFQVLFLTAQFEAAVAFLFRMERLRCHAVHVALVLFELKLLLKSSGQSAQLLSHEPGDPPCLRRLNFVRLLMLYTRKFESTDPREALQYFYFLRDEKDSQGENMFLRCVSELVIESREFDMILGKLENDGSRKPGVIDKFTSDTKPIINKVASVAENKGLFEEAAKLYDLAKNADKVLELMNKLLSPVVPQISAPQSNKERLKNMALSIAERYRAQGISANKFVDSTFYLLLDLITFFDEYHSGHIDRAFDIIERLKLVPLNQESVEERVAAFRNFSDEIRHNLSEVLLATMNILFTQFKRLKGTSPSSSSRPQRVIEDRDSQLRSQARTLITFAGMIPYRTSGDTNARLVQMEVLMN
T9 sequence (Q8N1F7 whole entry, the tested form may be a part): as the sequence (Q8N1F7 whole entry) above
T2 sequence (Q8NFH5 whole entry): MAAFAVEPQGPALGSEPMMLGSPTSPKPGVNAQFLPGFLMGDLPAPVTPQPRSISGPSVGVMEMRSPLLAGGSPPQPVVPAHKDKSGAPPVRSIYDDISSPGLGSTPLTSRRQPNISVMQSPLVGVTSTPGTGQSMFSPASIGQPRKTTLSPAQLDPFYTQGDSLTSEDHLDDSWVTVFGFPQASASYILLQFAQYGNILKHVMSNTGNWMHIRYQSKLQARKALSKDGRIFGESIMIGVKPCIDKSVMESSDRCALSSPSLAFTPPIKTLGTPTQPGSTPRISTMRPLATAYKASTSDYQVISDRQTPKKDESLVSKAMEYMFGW

B1: hNup35 (residues 173–248), RRM domain (domain or fragment, human, UniProt Q8NFH5 173-248, looked up)
chain: DSWVTVFGFPQASASYILLQFAQYGNILKHVMSNTGNWMHIRYQSKLQARKALSKDGRIFGESIMIGVKPCIDKSV
notes: Nup35 (also called Nup53 or MP44), human, RRM domain, residues 173-248; also called homodimeric RRM domain of Homo sapiens (h)Nup35; Nup35 RRM; source: E. coli NEB Express, purified, untagged
Turning to B1, the binding result in data set [1] was “binds”.

B2: xhNup35-Nb1t (VHH)
VHH: QVQLVESGGGLVQAGGSLRLSCVGTGNISSAYTMAWYRQAAGKEREVVAGILNGGSTHYADSVKGRFTISRDNAKNTVYLQMNSLQPEDTGVYCCHVVIESTRFVYDHYWGQGTRVTVSS
notes: they are in PDB 8OZB (complex with the human Nup35 RRM homodimer); form of the crystal structure; also called cross-specific anti-Nup35 nanobody; source: E. coli SHuffle, purified (Ni2+ chelate, NEDP1 protease elution, SEC)
For the molecule B2, in data set [2], the binding result is “binds”.

B3: xhNup35-Nb1t, fluorophore-labelled (VHH)
VHH: QVQLVESGGGLVQAGGSLRLSCVGTGNISSAYTMAWYRQAAGKEREVVAGILNGGSTHYADSVKGRFTISRDNAKNTVYLQMNSLQPEDTGVYCCHVVIESTRFVYDHYWGQGTRVTVSS
notes: as the VHH of m12 with engineered cysteines; source: E. coli SHuffle, purified, labelled with maleimide dye
Turning to B3, the binding result is on record as “binds” with human Nup35, endogenous and “binds” in data set [3].

B4: xhNup98-Nb2i (VHH)
VHH: QVQLVESGGGLAKPGGSLRLSCVATGTFRSMEDVGWYRQAPGKDRELVAEITTLGKVTYADSVKGRFTISRDDAKNAVYLQMSDLKSEDTAVYYCNIEADQTKGIGYVVYPYWGQGTRVTVSS
notes: they are in PDB 7NQA (complex with xNup98-APD); form of the crystal structure; also called xNup98-Nb2i; source: E. coli SHuffle, purified (Ni2+ chelate, NEDP1 protease elution, SEC)
As to B4, the binding result in data set [4] is “binds”.

B5: (biotin)-Avi-SUMO^Eu1-xhNup98-Nb2i (VHH)
VHH: QVQLVESGGGLAKPGGSLRLSCVATGTFRSMEDVGWYRQAPGKDRELVAEITTLGKVTYADSVKGRFTISRDDAKNAVYLQMSDLKSEDTAVYYCNIEADQTKGIGYVVYPYWGQGTRVTVSS
notes: as the VHH of m5; the tag was cleaved by SENP^EuB only for elution; source: E. coli SHuffle, purified; not shown: Avi (biotinylated), N-terminal, kept; SUMO^Eu1, N-terminal, kept
As for B5, the binding result is recorded as “binds” with human Nup98, endogenous and “binds” in data set [5].

B6: xhNup98-Nb2i (as added in the binding assay of Fig. 11C) (VHH)
VHH: QVQLVESGGGLAKPGGSLRLSCVATGTFRSMEDVGWYRQAPGKDRELVAEITTLGKVTYADSVKGRFTISRDDAKNAVYLQMSDLKSEDTAVYYCNIEADQTKGIGYVVYPYWGQGTRVTVSS
notes: as the VHH of m5; source: E. coli SHuffle, purified
With B6, the binding result in [6] is reported as “binds”.

B7: xhNup93-Nb4i, biotinylated for BLI (VHH)
VHH: QVQLVESGGGVVQTGDSLMLSCTVSGHTIDNWAMGWFRQTPRKQREFVAAIDKRGTGAIYGNSVKGRFTVSRDNAKNMVYLRMNSLKPEDTAVYFCAVDQLNAGLGDVSYDYDYWGQGTQVTVSS
notes: as the VHH of m1 with two ectopic cysteines; source: E. coli SHuffle, purified
With B7, the binding result in data set [7] and in [8] was “binds” each time.

B8: (biotin)-Avi-SUMO^Eu1-xhNup93-Nb4i (VHH)
VHH: QVQLVESGGGVVQTGDSLMLSCTVSGHTIDNWAMGWFRQTPRKQREFVAAIDKRGTGAIYGNSVKGRFTVSRDNAKNMVYLRMNSLKPEDTAVYFCAVDQLNAGLGDVSYDYDYWGQGTQVTVSS
notes: as the VHH of m1; the tag was cleaved by SENP^EuB only for elution; source: E. coli SHuffle, purified; not shown: Avi (biotinylated), N-terminal, kept; SUMO^Eu1, N-terminal, kept
For B8, the binding result in the data set with human Nup93, endogenous is listed as “binds”; in data set [9], “binds”.

B9: xhNup93-Nb4i (VHH)
VHH: QVQLVESGGGVVQTGDSLMLSCTVSGHTIDNWAMGWFRQTPRKQREFVAAIDKRGTGAIYGNSVKGRFTVSRDNAKNMVYLRMNSLKPEDTAVYFCAVDQLNAGLGDVSYDYDYWGQGTQVTVSS
notes: they are in PDB 8CDS (unliganded nanobody) and PDB 7ZOX (complex with xNup93); form used for the cryo-EM complex; for the unliganded crystal it was expressed as a His14-bdSUMO fusion and cleaved; source: E. coli SHuffle, purified (Ni2+ chelate, NEDP1 protease elution, SEC)
Turning to B9, the binding result in [10] is reported as “binds”.

B10: xNup98-Nb1t (as added in the binding assay of Fig. 11C) (VHH)
VHH: QVQLVESGGGPVEAGGSLRLSCAASGRSFSNSVMAWFRQAPGKEREFLSVLNWSSGRTSIADSVKGRFTMSRDPAKITVYLQMNGLKPEDTAVYYCAASNRGSLYTLDNQNRYEDWGQGTQVTVSS
notes: they are in PDB 5E0Q (xNup98-APD·xNup98-Nb1t complex, Pleiner et al, 2015); also called tracking nanobody xNup98-Nb1t; source: E. coli SHuffle, purified
On to B10, for which, in data set [6], the binding result is listed as “binds”.

B11: xNup98-Nb1t, fluorophore-labelled (VHH)
VHH: QVQLVESGGGPVEAGGSLRLSCAASGRSFSNSVMAWFRQAPGKEREFLSVLNWSSGRTSIADSVKGRFTMSRDPAKITVYLQMNGLKPEDTAVYYCAASNRGSLYTLDNQNRYEDWGQGTQVTVSS
notes: as the VHH of m10 with engineered cysteines; source: E. coli SHuffle, purified, labelled with maleimide dye
With B11, the binding result in data set [11] was “binds”.

B12: xNup93-Nb2t (VHH)
VHH: DVQLVESGGGLVQPGGSLRLSCVASGFTFSRVGMGWVRQAPGKGLEWVSDINASGGTGYADSVKGRFAISRDNAKNTLYLQMNRLKPEDTAVYYCAKMMDTAMIEAGIIKPAGQGTQVTVSS
notes: they are in the PDB entry of the unliganded nanobody (printed as 8CDT in the methods and 8CD7 in the data availability) and in PDB 7ZOX; purified untagged in the cryo-EM complex; for the unliganded crystal expressed as a His14-bdSUMO fusion and cleaved; also called tracking nanobody xNup93-Nb2t; source: E. coli SHuffle, purified
Regarding B12, in data set [10], the binding result is on record as “binds”.

B13: xhNup98-Nb3i (VHH)
VHH: QVQLVESGGGLVQAGGSLRLSCAASGRTFSTYAMGWFRQAPGKEREFVSACSWSGGITRYADSVKGRFTISRDNAKNTVYLQMNSLKPEDTAVYYCASAASSAAYSGAYYYTSYYDYWGQGTQVTVSS
notes: they are in PDB 7NOW (complex with xNup98-APD); form of the crystal structure; source: E. coli SHuffle, purified (Ni2+ chelate, NEDP1 protease elution, SEC)
With B13, the binding result in data set [4] is on record as “binds”.

Values taken from article PMC11148069 (The EMBO Journal, 2024).
